Data taken from patent publication US20110159588A1 (published 2011).

T1: HER4 (human EGF-like receptor 4) ECD fused to hFcγ (human, UniProt Q15303 26-651)
T1 construct: extracellular domain; not shown: human Fc gamma
T1 sequence (looked up): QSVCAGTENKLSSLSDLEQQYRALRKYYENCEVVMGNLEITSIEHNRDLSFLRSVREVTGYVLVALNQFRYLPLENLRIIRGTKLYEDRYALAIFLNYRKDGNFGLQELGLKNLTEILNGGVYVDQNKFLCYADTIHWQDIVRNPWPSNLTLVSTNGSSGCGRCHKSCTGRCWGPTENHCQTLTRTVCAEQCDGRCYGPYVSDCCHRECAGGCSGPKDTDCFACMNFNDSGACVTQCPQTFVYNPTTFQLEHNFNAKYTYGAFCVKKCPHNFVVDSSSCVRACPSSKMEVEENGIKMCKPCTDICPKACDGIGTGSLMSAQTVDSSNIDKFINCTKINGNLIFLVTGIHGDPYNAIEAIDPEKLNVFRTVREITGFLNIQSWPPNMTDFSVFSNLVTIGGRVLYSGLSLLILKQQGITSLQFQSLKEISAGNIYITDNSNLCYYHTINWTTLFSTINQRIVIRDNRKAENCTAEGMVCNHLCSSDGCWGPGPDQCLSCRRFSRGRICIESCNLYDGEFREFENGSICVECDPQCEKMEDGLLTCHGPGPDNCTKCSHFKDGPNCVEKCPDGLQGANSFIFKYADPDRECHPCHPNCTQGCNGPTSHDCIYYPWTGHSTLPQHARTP

B1: recombinant human PDGF-BB (ligand, UniProt P01127 82-190, looked up)
chain: SLGSLTIAEPAMIAECKTRTEVFEISRRLIDRTNANFLVWPPCVEVQRCSGCCNNRNVQCRPTQVQLRPVQVRKIEIVRKKPIFKKATVTLEDHLACKCETVAAARPVT
notes: Bought homodimer
B2: gD-TMEFF2-ΔFS I (gD-tagged TMEFF2 lacking the N-terminal follistatin module FS I) on 293 cells (receptor)
chain: KYALADASLKMADPNRFRGKDLPVLSGRCDICQFGAECDEDAEDVWCVCNIDCSQTNFNPLCASDGKSYDNACQIKEASCQKQEKIEVMSLGRCQDNTTTTTKSEDGHYARTDYAENANKLEESAREHHIPCPEHYNGFCMHGKCEHSINMQEPSCRCDAGYTGQHCEKKDYSVLYVVPGPVRFQYVLIAAVIGTIQIAVICVVVLCITRKCPRSNRIHRQKQNTGHYSSDNTTRASTRLI
notes: Deletion mutant; The true chain lacks the region up to and including FS I
B3: TECD-FLAG (extracellular domain of TMEFF2 fused to a FLAG tag at the carboxy-terminus) (other)
chain: FPTSLSDCQTPTGWNCSGYDDRENDLFLCDTNTCKFDGECLRIGDTVTCVCQFKCNNDYVPVCGSNGESYQNECYLRQAACKQQSEILVVSEGSCATDAGSGSGDGVHEGSGETSQKETSTCDICQFGAECDEDAEDVWCVCNIDCSQTNFNPLCASDGKSYDNACQIKEASCQKQEKIEVMSLGRCQDNTTTTTKSEDGHYARTDYAENANKLEESAREHHIPCPEHYNGFCMHGKCEHSINMQEPSCRCDAGYTGQHCEKKWRADYKDDDDK
notes: Expressed in mammalian cells, purified from supernatant; also called FLAG-tagged TECD; TMEFF2-ECD
B4: TECD-Fc (extracellular domain of TMEFF2 fused to the Fc portion of human immunoglobulin gamma at the carboxy-terminus) (Fc fusion)
chain: FPTSLSDCQTPTGWNCSGYDDRENDLFLCDTNTCKFDGECLRIGDTVTCVCQFKCNNDYVPVCGSNGESYQNECYLRQAACKQQSEILVVSEGSCATDAGSGSGDGVHEGSGETSQKETSTCDICQFGAECDEDAEDVWCVCNIDCSQTNFNPLCASDGKSYDNACQIKEASCQKQEKIEVMSLGRCQDNTTTTTKSEDGHYARTDYAENANKLEESAREHHIPCPEHYNGFCMHGKCEHSINMQEPSCRCDAGYTGQHCEKK
notes: also called TECD-hFc; Fc-tagged TECD; not shown: subc
B5: recombinant human PDGF-CC (ligand, UniProt Q9NRA1 235-345, looked up)
chain: VVDLNLLTEEVRLYSCTPRNFSVSIREELKRTDTIFWPGCLLVKRCGGNCACCLHNCNECQCVPSKVTKKYHEVLQLRPKTGVRGLHKSLTDVALEHHEECDCVCRGSTGG
notes: Bought homodimer

How the values were obtained:
[1] = biological target: B4; assay: ELISA, PDGF coat, anti-human Fc-HRP detection
Method: For the PDGF coat format, plates were coated with 1 μg/ml PDGF-AA, PDGF-AB, PDGF-BB, PDGF-CC, or PDGF-DD. Serially diluted TECD-Fc was added to the plates. Bound TECD-Fc was detected using horseradish peroxidase conjugated goat anti-human Fc (Jackson ImmunoResearch, West Grove, Pa.).
(§1) To confirm that the binding observed is indeed due to the interaction between PDGF-AA and TMEFF2-ECD, we then immobilized the PDGF ligands on the plates, and applied the TMEFF2-ECD fused to a different tag, TECD-Fc, as an analyte.

[2] = biological target: T2, recombinant human soluble PDGF receptor α extracellular domain (PDGF sRα) (human, UniProt P16234 24-528, biotinylated using biotin-X-NHS in the ELISAs (sRα-bio); sites not stated); assay: ELISA, PDGF coat, sRα-bio, streptavidin-HRP detection (FIG. 9B)
T2 construct: extracellular domain; also called sRα-bio; soluble PDGFRα extracellular domain
Method: FIG. 9 TECD-Fc competes with PDGF sRα for PDGF-AA binding. (A) PDGF-AA, but not AB, BB, CC or DD, binds to TECD-Fc. TECD-Fc was applied to wells coated with recombinant human PDGF-AA, AB, BB, CC or DD and detected with HRP-conjugated anti-human Fcγ. (B) sRα binds to all three recombinant human PDGF: AA, AB and BB. Biotinylated recombinant sRα (sRα-bio) was applied to wells coated with recombinant human PDGF-AA, AB, BB, CC or DD and detected with streptavidin-HRP. (C) 10 ng/ml TECD-Fc was mixed with increasing concentrations of sRα-bio and applied to PDGF-AA coated wells. Binding between sRα and PDGF-AA was detected using streptavidin-HRP.
as §1

[3] = biological target: T3, recombinant human PDGF-AA (human, UniProt P04085 87-211, limits assumed); assay: co-immunoprecipitation with anti-gD mAb from transfected 293 cells, anti-PDGF-A blot
T3 construct: Bought homodimer
Method: For binding of PDGF ligands to membrane-bound TMEFF2 proteins, 293 cells were transfected with the various TMEFF2 constructs and changed to fresh growth medium containing 5 μg/ml PDGF-AA or AB 48 hours after transfection. After 1 hour of incubation unbound PDGF ligands were washed away with ice cold PBS and cells were lysed in lysis buffer containing 50 mM Tris pH 8.0, 150 mM NaCl, 1 mM EDTA, 1% NP-40, and protease and phosphatase inhibitors, pre-cleared with protein G SEPHAROSE, and immunoprecipitated with anti-TMEFF2, anti-PDGF, or anti-gD antibodies. The immune complexes were dissociated with SDS sample buffer with (reducing condition) or without (non-reducing condition) β-mercaptoethanol and resolved by 4-20% Tris-Glycine SDS PAGE, transferred to nitrocellulose membranes, and detected with the indicated antibodies using enhanced chemiluminescence.
TMEFF2 contains 2 FS modules and an EGF-like domain. To dissect which domain(s) of TMEFF2 is/are involved in its interaction with PDGF-AA, Herpes simplex type 1 glycoprotein D (gD)-epitope tagged deletion mutants of TMEFF2 were made and examined for their ability to bind PDGF-AA when expressed on the surface of 293 cells (FIG. 4). As expected, PDGF-AA co-immunoprecipitated with gD-tagged full-length TMEFF2 by an anti gD monoclonal antibody. […]

[4] = biological target: T1, HER4 (human EGF-like receptor 4) ECD …; assay: ELISA, TECD-FLAG coat, anti-human Fc-HRP detection
Method: (§2) For the TMEFF2 coat format, MaxiSorp 96-well microwell plates (Thermo Scientific Nunc, Roskilde, Denmark) were coated with 1 μg/ml TECD-FLAG in 50 mM carbonate buffer, pH 9.6, overnight at 4° C. Plates were washed with PBS, pH 7.4 containing 0.05% polysorbate 20 and blocked with 0.5% bovine serum albumin (BSA), 15 parts per million Proclin 300 in phosphate buffered saline (PBS), pH 7.4 for 1 hour at room temperature. Serially diluted PDGF-AA, PDGF-AB or PDGF-BB in PBS containing 0.5% BSA, 0.05% polysorbate 20, and 15 parts per million Proclin 300 were added to the plates. After a 2-hour incubation, PDGF bound to the plates was detected by incubating biotinylated goat anti-human PDGF-AA or PDGF-AB or PDGF-BB in the wells for 1 hour, followed by horseradish peroxidase conjugated streptavidin (GE Healthcare, Piscataway, N.J.) for 30 min. Bound Fc-fusion protein was detected by adding goat anti-hman Fc-HRP (Jackson ImmunoResearch, West Grove, Pa.). After a final wash, the substrate 3,3′,5,5′-tetramethyl benzidine (Kirkegaard & Perry Laboratories) was added to plates and the reaction was stopped by adding 1 M phosphoric acid. Plates were washed with PBS, pH 7.4, containing 0.05% Tween 20, between steps and all incubation steps were performed at room temperature on an orbital shaker. Absorbance was read at 450 nm on a multiskan Ascent reader (Thermo Scientific, Hudson, N.H.). The titration curves were fitted using a four-parameter nonlinear regression curve-fitting program (KaleidaGraph, Synergy software, Reading, Pa.).
(§3) For testing binding of Fc-fusion proteins or his-tagged proteins to TECD-Flag coated on the plate, horseradish peroxidase conjugated goat anti-human Fc (Jackson ImmunoResearch, West Grove, Pa.) or biotinylated anti-His (Penta-His, Qiagen, Valencia, Calif.) followed by horseradish peroxidase conjugated streptavidin was used for detection. For testing TECD-Flag coat, serially diluted mouse anti-Flag (Sigma, St. Louis, Mo.) was added to the plates followed by horseradish peroxidase conjugated goat anti-mouse Fc (Jackson ImmunoResearch). Serially diluted PDGF-AA was also added to wells coated with goat anti-PDGF for comparison to wells coated with 1 μg/ml TECD-Flag. Bound PDGF-AA was detected as described above.

[5] = biological target: T4, HER3 (human EGF-like receptor 3) ECD fused to hFcγ (human, UniProt P21860 20-643); assay: ELISA, TECD-FLAG coat, anti-human Fc-HRP detection
T4 construct: extracellular domain; not shown: human Fc gamma
Method: as §2, §3

[6] = biological target: T5, HER2 (human EGF-like receptor 2) ECD fused to hFcγ (human, UniProt P04626 23-652); assay: ELISA, TECD-FLAG coat, anti-human Fc-HRP detection
T5 construct: extracellular domain; not shown: human Fc gamma
Method: as §2, §3

[7] = biological target: T6, EGFR (human epithelial growth factor receptor) ECD fused to hFcγ (human, UniProt P00533 25-645); assay: ELISA, TECD-FLAG coat, anti-human Fc-HRP detection
T6 construct: extracellular domain; not shown: human Fc gamma
Method: as §2, §3

[8] = biological target: B3; assay: ELISA, TECD-FLAG coat, anti-human Fc-HRP detection
Method: as §2, §3

T2 sequence (P16234 24-528): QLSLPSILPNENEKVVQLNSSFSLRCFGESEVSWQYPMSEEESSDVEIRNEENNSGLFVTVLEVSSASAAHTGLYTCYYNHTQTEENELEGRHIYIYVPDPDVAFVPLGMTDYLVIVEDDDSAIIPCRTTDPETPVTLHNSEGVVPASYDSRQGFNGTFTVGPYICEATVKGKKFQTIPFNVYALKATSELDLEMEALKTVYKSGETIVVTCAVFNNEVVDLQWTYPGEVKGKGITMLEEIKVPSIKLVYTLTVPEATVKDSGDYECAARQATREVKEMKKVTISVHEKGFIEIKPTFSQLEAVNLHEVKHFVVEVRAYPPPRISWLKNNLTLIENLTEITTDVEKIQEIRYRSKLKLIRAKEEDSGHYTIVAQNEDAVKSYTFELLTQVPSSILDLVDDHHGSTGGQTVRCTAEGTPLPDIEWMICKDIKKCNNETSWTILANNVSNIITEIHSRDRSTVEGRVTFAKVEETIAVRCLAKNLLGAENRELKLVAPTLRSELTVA
T4 sequence (P21860 20-643): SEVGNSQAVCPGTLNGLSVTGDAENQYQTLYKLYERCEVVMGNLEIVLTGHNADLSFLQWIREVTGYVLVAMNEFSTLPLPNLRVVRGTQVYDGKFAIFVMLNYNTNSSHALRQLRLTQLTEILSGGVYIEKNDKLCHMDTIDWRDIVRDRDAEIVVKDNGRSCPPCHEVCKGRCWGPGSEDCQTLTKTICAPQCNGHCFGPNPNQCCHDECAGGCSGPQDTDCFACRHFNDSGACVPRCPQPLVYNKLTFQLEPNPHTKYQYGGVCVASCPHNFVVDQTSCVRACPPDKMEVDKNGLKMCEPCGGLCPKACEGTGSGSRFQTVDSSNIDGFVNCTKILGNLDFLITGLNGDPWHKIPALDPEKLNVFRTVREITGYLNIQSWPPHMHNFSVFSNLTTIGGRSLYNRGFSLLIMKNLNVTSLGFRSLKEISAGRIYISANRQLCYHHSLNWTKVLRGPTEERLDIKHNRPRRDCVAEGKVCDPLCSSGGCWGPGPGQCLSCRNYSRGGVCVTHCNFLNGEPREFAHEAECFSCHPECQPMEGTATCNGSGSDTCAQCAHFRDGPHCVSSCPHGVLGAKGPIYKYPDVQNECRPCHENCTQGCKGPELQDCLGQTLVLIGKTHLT

B1
binding result [1]: no binding | binding result [2]: binds

B2
binding result [3]: no binding (tested: 5 µg/ml)

B3
binding result [4]: no binding | binding result [5]: no binding | binding result [6]: no binding | binding result [7]: no binding

B4
binding result [8]: no binding

B5
binding result [1]: no binding
